53 substances from patent US10738094B2, “Peptides and combination of peptides for use in immunotherapy against ovarian cancer and other cancers” (immatics biotechnologies GmbH, priority 2015, dated 2020) can be followed below.

This assay deals with HLA-A*02:01 (Homo sapiens, UniProt P04439, D140Y/D185E/D98H/E176V/E277Q/G131W/G231S/I119V/I121R/I166T/I218V/L300P/L318F/N151K/N90K/P208A/P217A/Q86G/Q94H/R138H/R169H/T345S). Kind of assay: MHC binding assay (UV-ligand exchange, beta2m ELISA). As to conditions: binding to HLA-A*02:01 ranged by peptide exchange yield (UV-ligand exchange, β2m ELISA). The method in brief: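 UV-cleavable ligand in peptide-MHC complexes was exchanged for test peptide. Exchange yield came from an ELISA on streptavidin-captured complexes diluted 100 fold, detecting β2m with HRP anti-β2m (2 ug/ml, 1 h, 37° C.), TMB, A450.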
For orientation: In an ELISA, binding on a coated surface is turned into a signal by an enzyme label.
Consider “269 (RVLEVGALQAV; listed as Homo sapiens) [compound 269]”, for which the Peptide exchange entry is given as ““++” (≥20% = ++)”.
As to “110 (FLSQVDFEL; listed as Homo sapiens) [compound 110]”, the Peptide exchange result is reported as ““+++” (≥50 = +++)”.
Take “153 (FLIANVLYL; listed as Homo sapiens) [compound 153]”: the Peptide exchange result is ““+” (≥10% = +)”.
Consider “244 (SLFGGTEITI; listed as Homo sapiens) [compound 244]”, for which the Peptide exchange result is given as ““+++” (≥50 = +++)”.
As for “397 (YLFGERLLEC; listed as Homo sapiens) [compound 397]”, the entry is ““+++” (≥50 = +++)”.
As for “488 (FLAEDPKVTL; listed as Homo sapiens) [compound 488]”, the Peptide exchange result is recorded as ““+++” (≥50 = +++)”.
With “17 (GLLPGDRLVSV; listed as Homo sapiens) [compound 17]”, the Peptide exchange entry is given as ““+++” (≥50 = +++)”.
As for “62 (VLLDVSAGQLLM; listed as Homo sapiens) [compound 62]”, the entry is ““++++” (≥75% = ++++)”; as for “87 (ALPEAPAPLLPHIT; listed as Homo sapiens) [compound 87]”, ““++” (≥20% = ++)”.
As for “340 (ALLSMTFPL; listed as Homo sapiens) [compound 340]”, the entry is ““++++” (≥75% = ++++)”; as for “497 (GLLEKLTAI; listed as Homo sapiens) [compound 497]”, ““+++” (≥50 = +++)”; as for “456 (LLIGHLERV; listed as Homo sapiens) [compound 456]”, ““+++” (≥50 = +++)”.
As to “522 (TLWYRSPEV; listed as Homo sapiens) [compound 522]”, the Peptide exchange result is reported as ““++” (≥20% = ++)”.
For “378 (ALGYFVPYV; listed as Homo sapiens) [compound 378]”, the Peptide exchange result is listed as ““+++” (≥50 = +++)”.
As for “393 (GLLDTQTSQVLTA; listed as Homo sapiens) [compound 393]”, the Peptide exchange result was ““++” (≥20% = ++)”.
As for “135 (ALSEVDFQL; listed as Homo sapiens) [compound 135]”, the entry is ““+++” (≥50 = +++)”; as for “496 (FLVEKQPPQV; listed as Homo sapiens) [compound 496]”, ““+++” (≥50 = +++)”.
Take “64 (YAAPGGLIGV; listed as Homo sapiens) [compound 64]”: the Peptide exchange result was ““++” (≥20% = ++)”.
For the substance “546 (VMIAGKVAVV; listed as Homo sapiens) [compound 546]”, the Peptide exchange result is given as ““+++” (≥50 = +++)”.
On to “200 (LLFGSVQEV; listed as Homo sapiens) [compound 200]”, for which the Peptide exchange result is on record as ““+++” (≥50 = +++)”.
Turning to “598 (FLFPHSVLV; listed as Homo sapiens) [compound 598]”, the Peptide exchange entry is ““+++” (≥50 = +++)”.
As for “554 (LLMPSSEDLLL; listed as Homo sapiens) [compound 554]”, the entry is ““+++” (≥50 = +++)”; as for “75 (GLLEVMVNL; listed as Homo sapiens) [compound 75]”, ““+++” (≥50 = +++)”.
As for “474 (YLDPALELGPRNV; listed as Homo sapiens) [compound 474]”, the entry is ““+++” (≥50 = +++)”; as for “604 (SILDRDDIFV; listed as Homo sapiens) [compound 604]”, ““+++” (≥50 = +++)”.
As for “297 (VLADIELAQA; listed as Homo sapiens) [compound 297]”, the entry is ““+++” (≥50 = +++)”; as for “449 (KLAEGLDIQL; listed as Homo sapiens) [compound 449]”, ““+++” (≥50 = +++)”.
For “593 (GLPRFGIEMV; listed as Homo sapiens) [compound 593]”, the Peptide exchange result is recorded as ““+++” (≥50 = +++)”.
As to “359 (YLLPESVDL; listed as Homo sapiens) [compound 359]”, the Peptide exchange entry was ““+++” (≥50 = +++)”.
As for “320 (KMFEFVEPLL; listed as Homo sapiens) [compound 320]”, the entry is ““++++” (≥75% = ++++)”; as for “490 (FLLQHVQEL; listed as Homo sapiens) [compound 490]”, ““+++” (≥50 = +++)”.
Consider “493 (GLLGEKTQDLIGV; listed as Homo sapiens) [compound 493]”, for which the Peptide exchange entry is ““+++” (≥50 = +++)”.
As for “447 (QLVPALAKV; listed as Homo sapiens) [compound 447]”, the Peptide exchange entry is listed as ““++” (≥20% = ++)”.
In the case of “403 (KLYDRILRV; listed as Homo sapiens) [compound 403]”, the Peptide exchange entry is reported as ““++” (≥20% = ++)”.
As for “276 (ALFTFSPLTV; listed as Homo sapiens) [compound 276]”, the entry is ““+++” (≥50 = +++)”.
As for “100 (YLLSTNAQL; listed as Homo sapiens) [compound 100]”, the entry is ““++++” (≥75% = ++++)”.
With “91 (IMQDFPAEIFL; listed as Homo sapiens) [compound 91]”, the Peptide exchange result is reported as ““++++” (≥75% = ++++)”.
As for “33 (VLLSLLEKV; listed as Homo sapiens) [compound 33]”, the entry is ““++” (≥20% = ++)”.
In the case of “495 (FIFSEKPVFV; listed as Homo sapiens) [compound 495]”, the Peptide exchange result was ““+++” (≥50 = +++)”.
As for “283 (ALYIGDGYVIHLA; listed as Homo sapiens) [compound 283]”, the entry is ““+++” (≥50 = +++)”.
As for “337 (HLLSELEAAPYL; listed as Homo sapiens) [compound 337]”, the entry is ““++++” (≥75% = ++++)”; as for “158 (KLFDVDEDGYI; listed as Homo sapiens) [compound 158]”, ““+++” (≥50 = +++)”; as for “27 (ILADIVISA; listed as Homo sapiens) [compound 27]”, ““+++” (≥50 = +++)”.
On to “151 (KILQQLVTL; listed as Homo sapiens) [compound 151]”, for which the Peptide exchange entry is recorded as ““+++” (≥50 = +++)”.
Consider “331 (KVDTVWVNV; listed as Homo sapiens) [compound 331]”, for which the Peptide exchange entry is listed as ““+++” (≥50 = +++)”.
For “376 (AMFESSQNVLL; listed as Homo sapiens) [compound 376]”, the Peptide exchange result was ““++” (≥20% = ++)”.
Take “317 (SLAALVVHV; listed as Homo sapiens) [compound 317]”: the Peptide exchange entry was ““+++” (≥50 = +++)”.
As to “334 (TLTKVLVAL; listed as Homo sapiens) [compound 334]”, the Peptide exchange result is recorded as ““+++” (≥50 = +++)”.
As for “76 (ILIDSIYKV; listed as Homo sapiens) [compound 76]”, the Peptide exchange result is reported as ““+++” (≥50 = +++)”.
As for “620 (KLLNKIYEA; listed as Homo sapiens) [compound 620]”, the entry is ““++++” (≥75% = ++++)”; as for “463 (SLVESHLSDQLTL; listed as Homo sapiens) [compound 463]”, ““+++” (≥50 = +++)”; as for “438 (KLLPLAGLYL; listed as Homo sapiens) [compound 438]”, ““++++” (≥75% = ++++)”.
“85 (KMSELRVTL; listed as Homo sapiens) [compound 85]”: the Peptide exchange result is on record as ““+++” (≥50 = +++)”.
